According to patent US20230035748A1:
No end group written: not given here.

Tests used:
Test in all cases: pull-down from MDA-MB-231 cell lysate with CT20p-biotin and streptavidin-agarose beads, excised gel band, mass spectrometry
[1] = molecular target: T-complex protein 1 subunit eta (human) (UniProt Q99832)
[2] = molecular target: T-complex protein 1 subunit delta (human) (UniProt P50991)
[3] = molecular target: Coatomer subunit beta (human) (UniProt P35606)
[4] = molecular target: Hsp90 co-chaperone Cdc37 (human) (UniProt Q16543)
[5] = molecular target: T-complex protein 1 subunit gamma (human) (UniProt P49368)
[6] = molecular target: Huntingtin (human) (UniProt P42858)
[7] = molecular target: Coatomer subunit gamma-1 (human) (UniProt Q9Y678)
[8] = molecular target: Reticulocalbin-2 (human) (UniProt Q14257)
[9] = molecular target: Signal transducer and activator of transcription 1-alpha/beta (human) (UniProt P42224)
[10] = molecular target: Signal transducer and activator of transcription 3 (human) (UniProt P40763)
[11] = molecular target: T-complex protein 1 subunit zeta (human) (UniProt P40227)
[12] = molecular target: Cellular tumor antigen p53 (human) (UniProt P04637)
[13] = molecular target: T-complex protein 1 subunit epsilon (human) (UniProt P48643)
[14] = molecular target: T-complex protein 1 subunit alpha (human) (UniProt P17987)
UniProt P17987, sequence (P17987 whole entry, one chain of several): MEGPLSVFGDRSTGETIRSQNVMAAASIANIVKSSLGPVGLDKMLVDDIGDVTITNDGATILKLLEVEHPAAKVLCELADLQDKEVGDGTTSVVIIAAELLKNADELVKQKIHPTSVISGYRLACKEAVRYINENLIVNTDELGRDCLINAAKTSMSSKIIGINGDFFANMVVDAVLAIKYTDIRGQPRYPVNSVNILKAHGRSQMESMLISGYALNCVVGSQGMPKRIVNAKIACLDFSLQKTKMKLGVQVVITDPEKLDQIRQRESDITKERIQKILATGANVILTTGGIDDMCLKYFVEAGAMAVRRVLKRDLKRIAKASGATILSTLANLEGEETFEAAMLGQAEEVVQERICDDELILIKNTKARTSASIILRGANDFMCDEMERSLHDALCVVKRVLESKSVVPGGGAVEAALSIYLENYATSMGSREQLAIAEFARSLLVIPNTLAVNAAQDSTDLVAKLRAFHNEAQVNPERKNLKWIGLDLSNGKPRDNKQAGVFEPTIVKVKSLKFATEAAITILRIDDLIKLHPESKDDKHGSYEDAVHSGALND

UniProt P42858, sequence (P42858 whole entry): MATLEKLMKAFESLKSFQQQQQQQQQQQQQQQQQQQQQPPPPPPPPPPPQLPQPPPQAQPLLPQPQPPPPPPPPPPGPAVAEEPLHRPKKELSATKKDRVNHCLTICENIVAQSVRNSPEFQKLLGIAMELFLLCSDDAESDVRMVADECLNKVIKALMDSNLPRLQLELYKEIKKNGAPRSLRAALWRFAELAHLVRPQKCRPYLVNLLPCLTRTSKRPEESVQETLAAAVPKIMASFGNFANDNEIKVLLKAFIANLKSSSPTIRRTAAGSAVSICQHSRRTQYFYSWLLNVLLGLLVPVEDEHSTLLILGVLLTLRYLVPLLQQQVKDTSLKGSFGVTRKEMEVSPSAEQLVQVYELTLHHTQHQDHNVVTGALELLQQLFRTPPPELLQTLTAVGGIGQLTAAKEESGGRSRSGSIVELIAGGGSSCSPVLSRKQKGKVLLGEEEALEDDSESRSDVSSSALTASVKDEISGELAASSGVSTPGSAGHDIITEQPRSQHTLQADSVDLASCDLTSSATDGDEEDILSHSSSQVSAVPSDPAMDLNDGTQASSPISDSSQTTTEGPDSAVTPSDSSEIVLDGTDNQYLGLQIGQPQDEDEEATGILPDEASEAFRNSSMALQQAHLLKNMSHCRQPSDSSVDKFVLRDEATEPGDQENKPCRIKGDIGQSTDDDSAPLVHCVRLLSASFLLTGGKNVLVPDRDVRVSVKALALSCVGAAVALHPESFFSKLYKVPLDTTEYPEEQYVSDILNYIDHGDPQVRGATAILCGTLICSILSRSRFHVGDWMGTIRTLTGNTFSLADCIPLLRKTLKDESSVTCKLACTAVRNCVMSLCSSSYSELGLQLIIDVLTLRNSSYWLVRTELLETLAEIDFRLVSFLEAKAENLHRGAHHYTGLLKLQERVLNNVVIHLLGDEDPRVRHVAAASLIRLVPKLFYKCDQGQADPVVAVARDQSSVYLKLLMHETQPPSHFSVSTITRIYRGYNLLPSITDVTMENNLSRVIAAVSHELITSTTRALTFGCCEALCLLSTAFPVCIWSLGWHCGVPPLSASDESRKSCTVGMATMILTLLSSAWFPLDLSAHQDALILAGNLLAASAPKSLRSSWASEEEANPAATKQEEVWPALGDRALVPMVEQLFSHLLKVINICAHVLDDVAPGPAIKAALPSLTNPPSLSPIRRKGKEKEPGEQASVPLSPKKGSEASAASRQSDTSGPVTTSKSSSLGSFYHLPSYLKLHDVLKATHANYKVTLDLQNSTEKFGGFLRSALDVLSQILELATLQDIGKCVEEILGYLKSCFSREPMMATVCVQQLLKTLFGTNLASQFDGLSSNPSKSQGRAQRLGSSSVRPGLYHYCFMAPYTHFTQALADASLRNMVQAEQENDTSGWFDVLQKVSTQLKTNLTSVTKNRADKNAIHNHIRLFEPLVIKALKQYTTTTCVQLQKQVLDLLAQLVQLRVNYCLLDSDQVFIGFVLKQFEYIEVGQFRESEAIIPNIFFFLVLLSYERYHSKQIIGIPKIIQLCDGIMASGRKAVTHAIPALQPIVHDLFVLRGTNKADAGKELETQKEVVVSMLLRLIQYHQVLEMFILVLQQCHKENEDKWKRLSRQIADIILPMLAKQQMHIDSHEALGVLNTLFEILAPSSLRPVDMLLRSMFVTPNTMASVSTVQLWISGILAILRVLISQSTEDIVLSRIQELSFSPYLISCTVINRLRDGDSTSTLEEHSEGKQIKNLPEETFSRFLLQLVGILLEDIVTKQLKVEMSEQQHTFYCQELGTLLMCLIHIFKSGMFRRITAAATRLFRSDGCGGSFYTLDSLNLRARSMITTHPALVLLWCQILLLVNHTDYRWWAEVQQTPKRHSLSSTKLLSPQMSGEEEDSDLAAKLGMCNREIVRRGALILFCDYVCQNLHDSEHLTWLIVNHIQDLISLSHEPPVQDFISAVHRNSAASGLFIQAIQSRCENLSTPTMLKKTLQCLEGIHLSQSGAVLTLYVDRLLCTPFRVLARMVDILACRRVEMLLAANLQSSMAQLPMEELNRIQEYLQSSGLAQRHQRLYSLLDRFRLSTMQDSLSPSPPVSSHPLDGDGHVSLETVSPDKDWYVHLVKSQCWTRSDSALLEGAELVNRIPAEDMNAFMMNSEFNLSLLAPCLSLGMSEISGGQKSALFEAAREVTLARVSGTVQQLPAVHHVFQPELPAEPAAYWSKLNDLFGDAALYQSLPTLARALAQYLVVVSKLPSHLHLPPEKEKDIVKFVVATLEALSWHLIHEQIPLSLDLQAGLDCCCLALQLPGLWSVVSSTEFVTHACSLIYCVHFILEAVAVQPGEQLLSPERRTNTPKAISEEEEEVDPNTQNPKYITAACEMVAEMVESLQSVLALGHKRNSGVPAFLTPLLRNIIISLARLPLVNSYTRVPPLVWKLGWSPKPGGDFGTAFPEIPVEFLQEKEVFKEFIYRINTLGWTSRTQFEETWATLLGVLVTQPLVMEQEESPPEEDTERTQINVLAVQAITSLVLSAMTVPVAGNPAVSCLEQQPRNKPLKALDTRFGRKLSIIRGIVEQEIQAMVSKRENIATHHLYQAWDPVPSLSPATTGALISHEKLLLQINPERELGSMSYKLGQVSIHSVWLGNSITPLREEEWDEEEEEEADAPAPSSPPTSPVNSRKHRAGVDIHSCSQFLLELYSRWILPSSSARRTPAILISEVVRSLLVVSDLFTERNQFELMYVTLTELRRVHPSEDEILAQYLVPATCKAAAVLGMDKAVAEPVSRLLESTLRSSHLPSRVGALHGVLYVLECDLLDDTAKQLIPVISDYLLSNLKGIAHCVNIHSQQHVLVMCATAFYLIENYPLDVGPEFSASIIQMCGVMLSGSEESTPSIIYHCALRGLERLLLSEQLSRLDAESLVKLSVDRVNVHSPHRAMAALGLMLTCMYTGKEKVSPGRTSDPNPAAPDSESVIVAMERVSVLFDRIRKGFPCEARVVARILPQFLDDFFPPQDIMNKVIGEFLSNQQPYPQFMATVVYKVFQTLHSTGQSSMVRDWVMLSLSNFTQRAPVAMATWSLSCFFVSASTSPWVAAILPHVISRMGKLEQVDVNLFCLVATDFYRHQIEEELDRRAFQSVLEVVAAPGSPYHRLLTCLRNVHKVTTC
UniProt Q9Y678, sequence (Q9Y678 whole entry): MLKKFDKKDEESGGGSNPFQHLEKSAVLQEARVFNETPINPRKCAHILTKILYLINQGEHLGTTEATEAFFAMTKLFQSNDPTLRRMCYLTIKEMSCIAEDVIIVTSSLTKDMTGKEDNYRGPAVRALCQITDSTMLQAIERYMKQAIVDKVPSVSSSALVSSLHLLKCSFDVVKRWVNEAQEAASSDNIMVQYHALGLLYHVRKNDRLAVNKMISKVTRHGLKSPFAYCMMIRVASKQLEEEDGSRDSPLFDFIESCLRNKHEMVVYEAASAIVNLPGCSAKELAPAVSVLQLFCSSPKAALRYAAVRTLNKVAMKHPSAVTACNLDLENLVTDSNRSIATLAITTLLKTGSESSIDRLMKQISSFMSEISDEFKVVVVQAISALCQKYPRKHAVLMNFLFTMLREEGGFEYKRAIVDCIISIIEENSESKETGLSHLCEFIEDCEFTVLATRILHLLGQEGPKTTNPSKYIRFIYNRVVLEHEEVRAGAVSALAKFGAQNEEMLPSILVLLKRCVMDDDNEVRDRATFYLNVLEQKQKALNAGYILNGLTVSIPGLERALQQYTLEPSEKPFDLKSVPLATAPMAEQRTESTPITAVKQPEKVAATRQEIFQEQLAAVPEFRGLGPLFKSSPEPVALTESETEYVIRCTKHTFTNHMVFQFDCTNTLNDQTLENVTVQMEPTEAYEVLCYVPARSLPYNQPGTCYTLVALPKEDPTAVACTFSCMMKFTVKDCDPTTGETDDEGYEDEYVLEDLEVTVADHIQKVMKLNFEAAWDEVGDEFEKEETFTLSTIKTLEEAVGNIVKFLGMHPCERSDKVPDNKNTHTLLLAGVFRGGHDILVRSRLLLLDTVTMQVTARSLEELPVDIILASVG
UniProt P48643, sequence (P48643 2-541 limits assumed, one chain of several): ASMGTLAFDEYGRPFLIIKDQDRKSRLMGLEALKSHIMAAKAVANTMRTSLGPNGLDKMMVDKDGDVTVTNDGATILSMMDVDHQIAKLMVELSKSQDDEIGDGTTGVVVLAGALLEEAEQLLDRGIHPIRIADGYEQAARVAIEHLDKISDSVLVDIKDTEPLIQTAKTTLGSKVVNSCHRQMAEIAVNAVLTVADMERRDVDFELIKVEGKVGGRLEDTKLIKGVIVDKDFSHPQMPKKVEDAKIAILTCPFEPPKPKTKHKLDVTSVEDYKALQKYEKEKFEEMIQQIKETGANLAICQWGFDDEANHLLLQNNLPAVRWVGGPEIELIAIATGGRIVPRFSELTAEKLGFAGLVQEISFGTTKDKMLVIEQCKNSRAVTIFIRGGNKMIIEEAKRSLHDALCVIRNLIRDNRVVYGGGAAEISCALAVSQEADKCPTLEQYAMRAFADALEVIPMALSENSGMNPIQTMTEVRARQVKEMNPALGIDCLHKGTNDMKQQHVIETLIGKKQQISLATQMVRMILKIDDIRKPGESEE

No. of unique peptides [1]: 3 peptides
No. of unique peptides [2]: 4 peptides
No. of unique peptides [3]: 6 peptides
No. of unique peptides [4]: 2 peptides
No. of unique peptides [5]: 3 peptides
No. of unique peptides [6]: 1 peptides
No. of unique peptides [7]: 6 peptides
No. of unique peptides [8]: 10 peptides
No. of unique peptides [9]: 7 peptides
No. of unique peptides [10]: 2 peptides
No. of unique peptides [11]: 2 peptides
No. of unique peptides [12]: 1 peptides
No. of unique peptides [13]: 2 peptides
No. of unique peptides [14]: 2 peptides
Binder: VTIFVAGVLTASLTIWKKMG (also: biotin tag, site not given here) [biotin-tagged CT20p]
